In patent US10787640B2, “Producing mesodermal cell types and methods of using the same” (The Board of Trustees of the Leland Stanford Junior …, priority 2015, dated 2020):

Tests used:
[1] = tested on: day 5 hematopoietic intermediates; experiment: Day 5-7 continued differentiation of hematopoietic intermediates, factor withholding; type: cell-based, human
Protocol: SOX17^mCherry/+ H9 hESCs (referred to as SOX17-mCherry hESCs throughout this study) were routinely propagated in mTeSR1 (StemCell Technologies)+1% penicillin/streptomycin. They were passaged ˜1:12-1:25 as fine clumps using Accutase (Gibco) onto plates precoated with a Geltrex substratum (Gibco) in mTeSR1 medium supplemented with thiazovivin ([…]; a ROCK inhibitor). After overnight plating, hESCs were washed (DMEM/F12) and differentiated towards posterior PS using BMP4 (15-40 ng/mL, R&D Systems), CHIR99021 ([…]), FGF2 (20 ng/mL, Invitrogen) and PIK90 (100 nM, Calbiochem) for 24 hours, with the optional inclusion of Activin (30 ng/mL, R&D Systems) to induce mid PS. Day 1 mid or posterior PS was subsequently washed (DMEM/F12) and further differentiated using BMP4 (40 ng/mL), GDC-0941 (0.25-2.5 μM, Cellagen Technology), Forskolin (10 μM, Tocris), SB-505124 ([…]), VEGF (100 ng/mL, R&D Systems), XAV939 (1 μM, Tocris) and ascorbic acid-2-phosphate (200 μg/mL, Sigma) for 24 hours. Day 2 cultures were further directed into the definitive hematopoietic lineage/hemogenic precursors by Activin A (15 ng/mL), GDC-0941 (0.25-2.5 μM), VEGF (100 ng/mL), XAV939 (1 μM) and ascorbic acid-2-phosphate (200 μg/mL) for 24 hours. Day 3 definitive hematopoietic progenitors were subsequently differentiated into early Runx1^lowGfi1^low hemogenic intermediates through day 4-5 treatment with BMP4 (50 ng/mL), TTNPB (500 nM), VEGF (100 ng/mL) and XAV939 (1 μM) for 48 hours, supplemented with SB-505124 (2 μM) on day 5. Day 5 populations were then dissociated into single cells, counted and reaggregated in individual wells of a low-adhesion V-bottom or U-bottom 96-well plate (e.g., Thermo Fisher, catalog no. 249952) with ˜15,000-20,000 cells seeded per well. Aggregates were cultured for 48 additional hours until day 7 in BMP4 (50 ng/mL), TTNPB (500 nM), VEGF (100 ng/mL), XAV939 (1 μM), SB-505124 (2 μM), SCF (25-50 ng/mL, R&D Systems), IL6 (10 ng/mL, R&D Systems) and IL6RA (250-1000 ng/mL, R&D Systems). All differentiation was conducted in serum-free CDM2 fully-defined basal media.

hESCs = experiment: Downstream mesoderm potential of PS induced with Activin or BMP4; type: cell-based, human
Protocol: Subsequently, day 1 anterior primitive streak was briefly washed (DMEM/F12) and differentiated towards day 2 paraxial mesoderm for 24 hours (1 μM A-83-01+3 μM CHIR99021+250 nM LDN-193189+20 ng/mL FGF2). Separately, day 1 mid primitive streak was differentiated towards day 2 lateral mesoderm for 24 hours (1 μM A-83-01+30 ng/mL BMP4+1 μM C59; with 2 μM SB-505124 sometimes used instead of A-83-01).
E) To assess whether inducing PS in the presence of TGFβ signaling altered its downstream potential to form different kinds of mesoderm, (i) H7 hESCs were differentiated into PS with CHIR99021+FGF2+PIK90 (CFK) for 24 hours in the presence or absence of increasing amounts of Activin (10-100 ng/mL), and then were transferred into paraxial mesoderm induction conditions (A-83-01+CHIR99021+DM3189+FGF2) for 24 hrs, and qPCR was conducted or (ii) H7 hESCs were differentiated into PS with BMP4 (10 ng/mL)+CHIR99021+FGF2+PIK90 (B10CFK) for 24 hours in the presence or absence of increasing amounts of Activin (10-100 ng/mL), and then were transferred into lateral/cardiac mesoderm inductions (A-83-01+BMP4+C59) for 24 hours and qPCR was conducted. […] F) To assess whether inducing PS in the presence of BMP signaling altered its downstream potential to form different kinds of mesoderm, H7 hESCs were differentiated into PS with Activin (10 ng/mL)+CHIR99021+FGF2+PIK90 (A10CFK) for 24 hours in the presence of absence of increasing amounts of BMP4 (1-40 ng/mL), and then were (i) transferred into paraxial mesoderm induction conditions (A-83-01+CHIR99021+DM3189+FGF2) for 24 hrs, and qPCR was conducted or were (ii) transferred into lateral/cardiac mesoderm inductions (A-83-01+BMP4+C59) for 24 hours and qPCR was conducted. […] G) H7 hESCs were differentiated into anterior primitive streak (30 ng/mL Activin+4 μM CHIR99021+20 ng/mL FGF2+100 nM PIK90) in the presence or absence of BMP4 (10 ng/mL) for 24 hours, and then transferred into paraxial mesoderm induction conditions for 24 hours before TBX6 immunostaining was conducted. […] H) NKX2.5-GFP hESCs were differentiated into primitive streak with BMP4+CHIR99021+FGF2+PIK90 for 24 hours in the presence or absence of increasing doses of Activin (10-100 ng/mL), and then transferred into suboptimal lateral/cardiac mesoderm induction conditions (A-83-01+BMP4+C59, without FGF2) for 48 hours and FACS was performed after 72 hours of total differentiation to quantify NKX2.5-GFP^+ cell percentages. […] I) Efficient MIXL11^+ PS specification is highly reproducible in both anterior and mid PS differentiation conditions (“APS” and “MPS”, respectively) across 4 independent differentiation experiments, as assayed by a MIXL1-GFP knock-in reporter hESC line. Each circle or triangle represents an individual experiment and the average differentiation efficiency attained across all experiments is indicated.

## Cc1cccc(-c2[nH]c(C(C)(C)C)nc2-c2ccc3c(c2)OCO3)n1 [SB-505124, 2-[4-(1,3-Benzodioxol-5-yl)-2-(1,1-dimethylethyl)-1H-imidazol-5-yl]-6-methyl-pyridine]
[1]; individually withholding the factor from the 8 factors, 48 hours
  GFI1B expression: strongly diminished

B1: BMP4: BMP family ligand, BMP agonist (protein, UniProt P12644 293-408, looked up)
Bone morphogenetic protein 4: SPKHHSQRARKKNKNCRRHSLYVDFSDVGWNDWIVAPPGYQAFYCHGDCPFPLADHLNSTNHAIVQTLVNSVNSSIPKACCVPTELSAISMLYLDEYDKVVLKNYQEMVVEGCGCR
[1]; withdrawal of the factor
  hematopoietic or venous gene expression: minimally effected hematopoietic or venous gene expression
hESCs; PS induced in A10CFK with BMP4 (1-40 ng/mL)
  paraxial mesoderm potential of PS (qPCR): strongly blocked paraxial mesoderm potential
hESCs; PS induced in A10CFK with high BMP4 (40 ng/mL)
  lateral/cardiac mesoderm potential of PS (qPCR): maximized lateral/cardiac mesoderm potential
hESCs; anterior PS induced with BMP4 (10 ng/mL), 24 hours
  TBX6 immunostaining after paraxial mesoderm induction: larger numbers of TBX6^− clusters of non-paraxial mesoderm cells

B2: Activin: TGFβ agonist (protein, UniProt P08476 311-426, looked up)
Inhibin beta A chain: GLECDGKVNICCKKQFFVSFKDIGWNDWIIAPSGYHANYCEGECPSHIAGTSGSSLSFHSTVINHYRMRGHSPFANLKSCCVPTKLRPMSMLYYDDGQNIIKKDIQNMIVEECGCS
modifications: Inhibin beta A chain
notes: TGFβ agonist
hESCs; PS induced in B10CFK with lower Activin (e.g., 10 ng/mL)
  lateral/cardiac mesoderm potential of PS (qPCR): had maximal lateral/cardiac mesoderm potential
hESCs; PS induced in CFK with higher Activin doses (e.g., 30 ng/mL)
  paraxial mesoderm potential of PS (qPCR): instilled paraxial mesoderm potential
hESCs; higher Activin doses (50-100 ng/mL) during PS induction
  NKX2.5-GFP+ cell percentages (FACS, 72 hours): less effective
hESCs; low to moderate Activin during PS induction
  NKX2.5-GFP+ cell percentages (FACS, 72 hours): maximizes subsequent differentiation into NKX2.5-GFP^+ cardiac mesoderm
